{
  "source": "patent US9850293B2",
  "about": "“Targeting trastuzumab-resistant HER2+ breast cancer with a HER3-targeting nanoparticle” (priority 2014, dated 2017)",
  "molecules": {"B1": {"name": "HerDox: non-covalent complex of HerPBK10, double-stranded oligonucleotide and intercalated Dox (Unit A+Unit B+Unit C) (conjugate)", "chain": "SHLVKCAEKEKTFCVNGGECFMVKDLSNPSRYLCKCQPGFTGARCTENVPMKVQNQEKAEELYQKMRRAAMYEEGPPPSYESVVSAAPVAAALGSPFDAPLDPPFVPPRYLRPTGGRNSIRYSELAPLFDTTRVYLVDNKSTDVASLNYQNDHSNFLTTVIQNNDYSPGEASTQTINLDDRSHWGGDLKTILHTNMPNVNEFMFTNKFKARVMVSRLPTKDNQVELKYEWVEFTLPEGNYSETMTIDLMNNAIVEHYLKVGRQNGVLESDIGVKFDTRNFRLGFDPVTGLVMPGVYTNEAFHPDIILLPGCGVDFTHSRLSNLLGIRKRQPFQEGFRITYDDLEGGNIPALLDVDAYQASLKDDTEQGGGGAGGSNSSGSGAEENSNAAAAAMQPVEDMNDHAIRGDTFATRAEEKRAEAEAAAEAAAPAAQPEVEKPQKKPVIKPLTEDSKKRSYNLISNDSTFTQYRSWYLAYNYGDPQTGIRSWTLLCTPDVTCGSEQVYWSLPDMMQDPVTFRSTRQISNFPVVGAELLPVHSKSFYNDQAVYSQLIRQFTSLTHVFNRFPENQILARPPAPTITTVSENVPALTDHGTLPLRNSIGGVQRVTITDARRRTCPYVYKALGIVSPRVLSSRTFKKKKKKKKKK", "modifications": "left off: small tags and cut ends"}},
  "key": {"[1]": {"tested_on": "SKOV3", "assay": "Cytotoxicity on cell lines (HerDox dose curves)", "format": "cell-based, human", "conditions": "concentration yielding 50% reduction in cell survival, mean ± SD"}, "[2]": {"tested_on": "parental and resistant cell lines (JIMT-1, BT-474, SKBR3)", "assay": "HerDox −/+ HER3 blocking peptide, cell survival", "format": "cell-based, human", "conditions": "equimolar HER3:HerPBK10, 48 hours", "description": "(A)_-illustrates that resistance enhances HerDox toxicity. […] N=3. *, p<0.05 compared to parental. (B)_illustrates that resistance enhances HerDox toxicity. […] N=3. (C) illustrates contribution of HER3 to targeted toxicity. […] Treatments were compared to mock (saline)-treatment. […] N=3. *, p<0.05 compared to parental. […] N=3.\nThe contribution of HER3 to targeted toxicity was evaluated by assessing whether pre-adsorbing HerDox with a peptide comprising the ligand-binding domain of HER3 blocked cytotoxicity. […] In contrast, HerDox yielded dose-dependent cell death and eliminated up to 90% of the cells (FIG. 27-E)."}, "[3]": {"tested_on": "SKBR3 parental cells", "assay": "Tumor cell killing in culture", "format": "cell-based, human", "description": "FIG. 21 depicts graph that show the results of the administration of HerDox on various cells. […] N=3. *=p<0.05 compared to parental. […] N=3.\nN=3. *, p<0.05 compared to parental. […] N=3. […] Parental and resistant cell lines were treated with HerDox−/+HER3 blocking peptide (ErbB3 human; Prospec), and tested for cell survival 48 hours later. […] Treatments were compared to mock (saline)-treatment. […] N=3. *, p<0.05 compared to parental. […] N=3.\nParental cell lines were pre-treated with 0.5 mg/mL Tz for 24 hours before testing these cells for surface HER3 levels. […] Parental cell lines were pre-treated with 0.5 mg/mL Tz for 24 hours before testing these cells for HerPBK10 binding. […] SKBR3 Parental cells were treated with Tz at indicated concentrations (see upper X-axes) 4 and 24 hours before HerDox treatment and assayed for survival at 48-72 h after treatment. N=3. […] SK-474 Parental cells were treated with Tz at indicated concentrations (see upper X-axes) 4 and 24 hours before HerDox treatment and assayed for survival at 48-72 h after treatment. N=3. […] MDA-MB-435 non-resistant cells were treated with Tz at indicated concentrations (see upper X-axes) 4 and 24 hours before HerDox treatment and assayed for survival at 48-72 h after treatment. […] N=3. […] Tz-resistant cells were treated with Tz at indicated concentrations (see upper X-axes) 4 and 24 hours before HerDox treatment and assayed for survival at 48-72 h after treatment. N=3.\nEach therapeutic was administered at concentration ranges previously established for eliciting therapeutic efficacy.\nPrevious studies have shown that HER3 is transcriptionally and translationally elevated as soon as 4 hours after HER2 inhibition, either by lapatinib or gene silencing. […]"}, "[4]": {"tested_on": "MDA-MB-435", "assay": "Cytotoxicity on cell lines (HerDox dose curves)", "format": "cell-based, human", "conditions": "concentration yielding 50% reduction in cell survival, mean ± SD", "description": "FIG. 17 (B) depicts toxicity to cells displaying differential HER2. Cytotoxicities from a range of HerDox doses were assessed on each cell line by metabolic assay and confirmed by crystal violet stain. LD50 values shown in log scale were determined by non-linear regression analyses of HerDox dose curves using a scientific graphing program and confirmed using a calculator. The relative HER2 level of each cell line is shown next to each LD50 value.\nThe inventors measured cell surface levels of HER subunits on various cell lines and types described herein, as previously described levels may not reflect the actual levels in the available cells used. The inventors acquired the indicated cell lines from ATCC and the NIH/NCI and profiled these with respect to HER subunit levels (FIG. 17 (A)). To assess whether HerDox induces toxicity in accordance to HER2 levels, the inventors selected lines displaying HER2 at relatively high (SKBR3), moderate (MDA-MB-435, MDA-MB-453, HeLa), and low to undetectable (MDA-MB-231) levels, and performed cytotoxicity dose curves."}, "[5]": {"tested_on": "MDA-MB-435 cells", "assay": "Intracellular translocation of HerDox and Dox (microscopy)", "format": "cell-based, human", "description": "Live (unfixed) cells were imaged by brightfield and fluorescence microscopy.\nLive (unfixed) cells were imaged by DIC and confocal fluorescence microscopy.\nFIG. 15 illustrates HerDox trafficking in breast cancer cells. Cells incubated with HerDox at 37° C. were fixed at the indicated time points and processed for immunofluorescence using an antibody against HerPBK10. Images were captured using confocal microscopy under fluorescence and brightfield. n, nucleus; Bar, ˜8 microns."}, "[6]": {"assay": "Particle size (cryoEM, dynamic light scattering)", "format": "physicochemical", "conditions": "round particles", "description": "(A) depicts a graphic of HerDox formed by non-covalent, serum-stable self-assembly, showing HerPBK10 with functional domains delineated, and electrophilic binding with Dox-intercalated ds-oligo. (B) depicts a CryoEM image of HerDox particles. (C) is a HPLC chromatogram of HerDox showing elution profile of Dox absorbance. […] (D) illustrates the protection of ds-oligo from serum nuclease digestion by HerPBK10. The ds-oligo was incubated for 20 min in 100% mouse serum (Abcam, Cambridge, Mass., USA) before PAGE and EtBr staining to visualize the DNA. (E) illustrates that HerDox remains stable in blood. […] N=3. *, p<0.05, compared to respective retentates.\nFIG. 33 illustrates the formation of certain corroles. […] Table summarizes salient features of the three corroles.\nIn some embodiments, the corrole comprises a metallic chemical element. In some of these embodiments, the metal is a transition metal. In some embodiments, the metal is Iron (Fe), Manganese (Mn), or Gallium (Ga). In other embodiments, the corrole is non-metallated. Metallated and non-metallated corroles bind in protein pockets with negligible dissociation. […] Corrole assembly with HerPBK10 yields 25-35 corroles/protein, resulting in 10-20 nm round particles (FIG. 33-B) that withstand high-speed ultrafiltration."}},
  "note": "Entries after “also recorded” stand apart in the source; their conditions may differ.",
  "data": [
    {"molecule": "B1", "values": [
      {"measurement": "EC50", "setting": "[1]", "result": "0.18 ± 0.03", "unit": "µM"},
      {"measurement": "cell death after pre-adsorbing with HER3 peptide", "setting": "[2]", "result": "inhibited by the HER3 peptide"},
      {"measurement": "response of parental SKBR3 cells", "setting": "[3]; 48-72 h after treatment", "result": "improved cell killing compared to trastuzumab; also recorded: improved cell killing compared to Tz"},
      {"measurement": "cell death", "setting": "[3]; parental SKBR3, 48-72 h after treatment", "result": 50, "unit": "%"},
      {"measurement": "further augmentation of HerDox toxicity by trastuzumab pre-treatment", "setting": "[3]; parental SKBR3, Tz 4 or 24 hours before HerDox, highest doses tested", "result": "40-50%"},
      {"measurement": "EC50", "setting": "[4]", "result": "0.74 ± 0.07", "unit": "µM"},
      {"measurement": "intracellular location of Dox fluorescence", "setting": "[5]; 0 min of uptake, 0.5 μM", "result": "mostly at the cell periphery"},
      {"measurement": "localization of HerPBK10 and Dox (immunofluorescence)", "setting": "[5]; 30 and 60 min", "result": "increasing levels of Dox accumulate in the nucleus while the majority of HerPBK10 remains in the cytoplasm"},
      {"measurement": "colocalization of HerPBK10 and Dox (immunofluorescence)", "setting": "[5]; 15 min of uptake", "result": "HerPBK10 mostly colocalizes with Dox"},
      {"measurement": "intracellular location of Dox fluorescence", "setting": "[5]; 60 min", "result": "accumulated in the nucleus"},
      {"measurement": "intranuclear pattern of Dox in live cells", "setting": "[5]; confocal, live cells", "result": "preferentially accumulates in nucleolar structures"},
      {"measurement": "particle diameter", "setting": "[6]", "result": "10-50 nm"}
    ]}
  ]
}
